How the values were obtained:
HeLa Kyoto [1] = assay: thermal stability score vs G1/S (z-score of summed log2 fold changes over temperatures); higher = more thermally stable than in G1/S
HeLa Kyoto [2] = assay: solubility change mitosis vs G1/S (difference of NP-40 vs SDS log2 ratios) (log2 ratio difference); higher = more soluble in mitosis
HeLa Kyoto [3] = assay: melting temperature (median over replicates), in situ; higher = more thermally stable
HeLa Kyoto [4] = assay: solubility in G1/S (NP-40 vs SDS abundance) (log2 ratio); higher = more soluble; conditions: cell cycle stage: G1/S
[5] = cell cycle stage: early G1 (4.5 h after nocodazole release)
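Throughout, for melting temperature (median over replicates), in situ: HeLa Kyoto cells synchronized by double thymidine or nocodazole block, proteins quantified by TMT10plex mass spectrometry, three independent biological replicates.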
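Throughout, for solubility change mitosis vs G1/S (difference of NP-40 vs SDS log2 ratios): synchronized HeLa Kyoto cells (double thymidine block for G1/S, nocodazole release for mitosis), protein amounts in NP-40 versus SDS lysates quantified by mass spectrometry, three biological replicates.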
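Throughout, for solubility in G1/S (NP-40 vs SDS abundance): HeLa Kyoto cells arrested at G1/S by double thymidine block, proteins quantified by TMT10plex mass spectrometry in mild NP-40 versus SDS extracts, three biological replicates.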
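Throughout, for thermal stability score vs G1/S (z-score of summed log2 fold changes over temperatures): synchronized HeLa Kyoto cells, proteins quantified by TMT10plex mass spectrometry, three biological replicates, mitosis taken 0.5 h after nocodazole release, G1/S directly after double thymidine block.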

MAERQEEQRGSPPLRAEGKADAEVKLILYHWTHSFSSQKVRLVIAEKALKCEEHDVSLPLSEHNEPWFMRLNSTGEVPVLIHGENIICEATQIIDYLEQTFLDERTPRLMPDKESMYYPRVQHYRELLDSLPMDAYTHGCILHPELTVDSMIPAYATTRIRSQIGNTESELKKLAEENPDLQEAYIAKQKRLKSKLLDHDNVKYLKKILDELEKVLDQVETELQRRNEETPEEGQQPWLCGESFTLADVSLAVTLHRLKFLGFARRNWGNGKRPNLETYYERVLKRKTFNKVLGHVNNILISAVLPTAFRVAKKRAPKVLGTTLVVGLLAGVGYFAFMLFRKRLGSMILAFRPRPNYF [GDAP1]
thermal stability score (HeLa Kyoto [1]; [5]): 1.45 | thermal stability score (HeLa Kyoto [1]; cell cycle stage: mitosis): 1.45 | solubility change mitosis (log2) (HeLa Kyoto [2]): -0.1 | melting temperature (HeLa Kyoto [3]; cell cycle stage: G1/S): 54 °C | melting temperature (HeLa Kyoto [3]; cell cycle stage: mitosis): 52 °C | solubility in G1/S (log2) (HeLa Kyoto [4]): -0.194

MAESDWDTVTVLRKKGPTAAQAKSKQAILAAQRRGEDVETSKKWAAGQNKQHSITKNTAKLDRETEELHHDRVTLEVGKVIQQGRQSKGLTQKDLATKINEKPQVIADYESGRAIPNNQVLGKIERAIGLKLRGKDIGKPIEKGPRAK [EDF1]
thermal stability score (HeLa Kyoto [1]; [5]): -4.76 | thermal stability score (HeLa Kyoto [1]; cell cycle stage: mitosis): -6.66 | solubility change mitosis (log2) (HeLa Kyoto [2]): 0.78 | melting temperature (HeLa Kyoto [3]; cell cycle stage: G1/S): 55.2 °C | melting temperature (HeLa Kyoto [3]; cell cycle stage: mitosis): 52.7 °C | solubility in G1/S (log2) (HeLa Kyoto [4]): 0.119

MAESIIIRVQSPDGVKRITATKRETAATFLKKVAKEFGFQNNGFSVYINRNKTGEITASSNKSLNLLKIKHGDLLFLFPSSLAGPSSEMETSVPPGFKVFGAPNVVEDEIDQYLSKQDGKIYRSRDPQLCRHGPLGKCVHCVPLEPFDEDYLNHLEPPVKHMSFHAYIRKLTGGADKGKFVALENISCKIKSGCEGHLPWPNGICTKCQPSAITLNRQKYRHVDNIMFENHTVADRFLDFWRKTGNQHFGYLYGRYTEHKDIPLGIRAEVAAIYEPPQIGTQNSLELLEDPKAEVVDEIAAKLGLRKVGWIFTDLVSEDTRKGTVRYSRNKDTYFLSSEECITAGDFQNKHPNMCRLSPDGHFGSKFVTAVATGGPDNQVHFEGYQVSNQCMALVRDECLLPCKDAPELGYAKESSSEQYVPDVFYKDVDKFGNEITQLARPLPVEYLIIDITTTFPKDPVYTFSISQNPFPIENRDVLGETQDFHSLATYLSQNTSSVFLDTISDFHLLLFLVTNEVMPLQDSISLLLEAVRTRNEELAQTWKRSEQWATIEQLCSTVGGQLPGLHEYGAVGGSTHTATAAMWACQHCTFMNQPGTGHCEMCSLPRT [NPLOC4]
thermal stability score (HeLa Kyoto [1]; [5]): 0.478 | thermal stability score (HeLa Kyoto [1]; cell cycle stage: mitosis): -0.273 | solubility change mitosis (log2) (HeLa Kyoto [2]): -0.119 | melting temperature (HeLa Kyoto [3]; cell cycle stage: G1/S): 51.8 °C | melting temperature (HeLa Kyoto [3]; cell cycle stage: mitosis): 52 °C | solubility in G1/S (log2) (HeLa Kyoto [4]): -0.00908

MAETEALSKLREDFRMQNKSVFILGASGETGRVLLKEILEQGLFSKVTLIGRRKLTFDEEAYKNVNQEVVDFEKLDDYASAFQGHDVGFCCLGTTRGKAGAEGFVRVDRDYVLKSAELAKAGGCKHFNLLSSKGADKSSNFLYLQVKGEVEAKVEELKFDRYSVFRPGVLLCDRQESRPGEWLVRKFFGSLPDSWASGHSVPVVTVVRAMLNNVVRPRDKQMELLENKAIHDLGKAHGSLKP [HTATIP2]
thermal stability score (HeLa Kyoto [1]; [5]): 2.61 | thermal stability score (HeLa Kyoto [1]; cell cycle stage: mitosis): 4.75 | solubility change mitosis (log2) (HeLa Kyoto [2]): -0.095 | melting temperature (HeLa Kyoto [3]; cell cycle stage: G1/S): 50.8 °C | melting temperature (HeLa Kyoto [3]; cell cycle stage: mitosis): 50.2 °C | solubility in G1/S (log2) (HeLa Kyoto [4]): 0.148

MAEVGEDSGARALLALRSAPCSPVLCAAAAAAAFPAAAPPPAPAQPQPPPGPPPPPPPPLPPGAIAGAGSSGGSSGVSGDSAVAGAAPALVAAAAASVRQSPGPALARLEGREFEFLMRQPSVTIGRNSSQGSVDLSMGLSSFISRRHLQLSFQEPHFYLRCLGKNGVFVDGAFQRRGAPALQLPKQCTFRFPSTAIKIQFTSLYHKEEAPASPLRPLYPQISPLKIHIPEPDLRSMVSPVPSPTGTISVPNSCPASPRGAGSSSYRFVQNVTSDLQLAAEFAAKAASEQQADTSGGDSPKDESKPPFSYAQLIVQAISSAQDRQLTLSGIYAHITKHYPYYRTADKGWQNSIRHNLSLNRYFIKVPRSQEEPGKGSFWRIDPASEAKLVEQAFRKRRQRGVSCFRTPFGPLSSRSAPASPTHPGLMSPRSGGLQTPECLSREGSPIPHDPEFGSKLASVPEYRYSQSAPGSPVSAQPVIMAVPPRPSSLVAKPVAYMPASIVTSQQPAGHAIHVVQQAPTVTMVRVVTTSANSANGYILTSQGAAGGSHDAAGAAVLDLGSEARGLEEKPTIAFATIPAAGGVIQTVASQMAPGVPGHTVTILQPATPVTLGQHHLPVRAVTQNGKHAVPTNSLAGNAYALTSPLQLLATQASSSAPVVVTRVCEVGPKEPAAAVAATATTTPATATTASASASSTGEPEVKRSRVEEPSGAVTTPAGVIAAAGPQGPGTGE [FOXK1]
thermal stability score (HeLa Kyoto [1]; [5]): 2.52 | thermal stability score (HeLa Kyoto [1]; cell cycle stage: mitosis): 2.09 | solubility change mitosis (log2) (HeLa Kyoto [2]): -0.0982 | melting temperature (HeLa Kyoto [3]; cell cycle stage: G1/S): 49.1 °C | melting temperature (HeLa Kyoto [3]; cell cycle stage: mitosis): 51 °C | solubility in G1/S (log2) (HeLa Kyoto [4]): 0.588

MAEVSIDQSKLPGVKEVCRDFAVLEDHTLAHSLQEQEIEHHLASNVQRNRLVQHDLQVAKQLQEEDLKAQAQLQKRYKDLEQQDCEIAQEIQEKLAIEAERRRIQEKKDEDIARLLQEKELQEEKKRKKHFPEFPATRAYADSYYYEDGGMKPRVMKEAVSTPSRMAHRDQEWYDAEIARKLQEEELLATQVDMRAAQVAQDEEIARLLMAEEKKAYKKAKEREKSSLDKRKQDPEWKPKTAKAANSKSKESDEPHHSKNERPARPPPPIMTDGEDADYTHFTNQQSSTRHFSKSESSHKGFHYKH [CCDC50]
thermal stability score (HeLa Kyoto [1]; [5]): -5.07 | thermal stability score (HeLa Kyoto [1]; cell cycle stage: mitosis): -1.65 | solubility change mitosis (log2) (HeLa Kyoto [2]): 0.182 | melting temperature (HeLa Kyoto [3]; cell cycle stage: G1/S): 57.7 °C | melting temperature (HeLa Kyoto [3]; cell cycle stage: mitosis): 55 °C | solubility in G1/S (log2) (HeLa Kyoto [4]): 0.334
